These results are taken from patent publication US20030124571A1, “Novel human septin and uses therefor” (The Government of the United States of America, priority 2000, published 2003).

In one assay the test system is caspase 3. Put plainly: Caspase 3 fluorescent activity assay with aldehyde inhibitor, all cells examined. Type of assay: cell-based. The method, then: (§1) Cells were seeded to 50% confluence in six-well plates in media containing 10% fetal calf serum overnight. Following 24 hours after transfection, cells media was changed to contain 1% fetal calf serum with or without 10 ng/ml TGF-β for additional 24 hours. Cells were treated with caspase 3 aldehyde inhibitor (Ac-DEVD-CHO) supplied with caspase 3 fluorescent activity kit according to the manufacturers' protocols (Pharmingen, San-Diego, Calif.). Results were read using FL-600 microplate fluorescence reader (Bio-Tek).

Assay [1] deals with NRP-154 cells. Description: Annexin-V apoptosis of GFP-sorted transfected NRP-154 cells. The assay is classed as cell-based, rat. Conditions: NRP-154 cells overexpressing ARTS. The method, then:
(§2) Cells were seeded to 50% confluence in six-well plates in DMEM-F12 containing 10% fetal calf serum overnight.
(§3) ARTS whole cDNA in PCMV-sport vector was isolated from a human fetal cDNA library in the pcmv-sport vector (Gibco BRL Life Technologies). This vector is different from AU5 tagged vector.
(§4) The NRP-154 and M-NRP1 cells were cotransfected with a total of 2 μDNA, 1 μg ARTS-pcmv-sport and 1 μg a GFP vector (Clontech, Palo-Alto, Calif.), a marker for transfected cells, using Lipofectamine (Gibco BRL Life Technologies, Gaithersburg, Md.) or FuGENE 6 (Boehringer-Mannheim) according to the manufacturer's protocol.
(§5) After 24 hours, cells media was changed to contain 1% fetal calf serum with or without 10 ng/ml TGF-β for an additional 24 hours.
(§6) GFP-positive cells were sorted using FACS.
(§7) The sorted population was stained with streptavidin-sulforhodamin.
(§8) The number of apoptotic cells was measured using the TACS Annexin-V-biotin (Trevigen, Gaithersburg, Md.).

A further assay concerns caspase 3 in COS cells. Put plainly: Caspase 3 fluorescent activity assay, COS cells. The assay is classed as cell-based, monkey. Conditions: overexpression of construct, following treatment with TGF-β. How it is done: as §1
Assay [2] deals with COS cells. Put plainly: Apoptosis (nuclear fragmentation, immunofluorescence) of COS cells transfected with ARTS constructs. The assay is classed as cell-based, monkey. How it is done:
A C-terminal deletion construct lacking the last 24 amino acids of the ARTS protein was constructed and its apoptotic activity in COS cells was examined. […] Thus, the truncated construct is both more rapid in translocating to the nucleus and in inducing apoptosis in response to TGF-β.
COS cells were cultured as desribed previously (Section E, above) and cotransfected with either empty empty AU5 vector (based on pcDNA3 vectors provided by Dr. Silvio Gukind) or ARTS-AU5 with X-vector. ARTS-AU5 was prepared as desribed above. X-vector is a general term to describe any other vector which was cotransfected together with ARTS to asses its effect on ARTS activity.
24 hours after transfection, cell media was changed to contain 1% fetal calf serum with or without 10 ng/ml TGF-β and the cells were incubated for another 24 hours. The cells were then washed twice with PBS and fixed with 4% paraformaldehyde in PBS. Cells were blocked with 5% BSA in PBS for 30 minutes, then incubated with anti-AU5 fluroescein antibodies (Babco, Richmond, Calif.). The cells were also counterstained with DAPI for counting of fragmented nuclei.

The subject of a further assay is M-NRP1 cells. Put plainly: Annexin-V apoptosis of GFP-sorted transfected M-NRP1 cells. Type of assay: cell-based, rat. The conditions noted are these: M-NRP1 cells transfected with wildtype ARTS, 10 ng/ml TGF-β 24 hours. How it is done: as §2, §3, §4, §5, §6, §7, §8
Assay [3] deals with caspase 3 in NRP-154 cells. Put plainly: Caspase 3 fluorescent activity assay, NRP-154 cells. The conditions noted are these: 10 ng/ml TGF-β 24 hours. The assay is classed as cell-based, rat. How it is done: as §1
Assay [4] has as its system 3TP-Lux promoter construct in NRP-154 cells. Put plainly: p3TP-Lux reporter luciferase assay with ARTS cotransfection, NRP-154 cells. Type of assay: cell-based, rat. The conditions noted are these: 10 ng/ml TGF-β 24 hours. How it is done:
(§9) NRP-154 and FaO cells were seeded to 50% confluence in six-well plates in DMEM-F12 or DMEM, respectively, containing 10% fetal calf serum overnight.
(§10) Antisense- and sense-ARTS were generated by PCR using ARTS cDNA containing the 5′UTR of ARTS as a template. The PCR fragments were subcloned into the Bam H1-Eco R1 sites of pcDNA3 vector containing the Pcmv promotor (invitrogen, Carlsbad, Calif.).
(§11) NRP-154 cells and FaO cells were transfected with lug/sample p3TP-Lux reporter (a gift from Dr. Joan Massague), which contains 3 repeats of an AP-1 site from the collagenase promoter linked to a short region of the PAI-1 promoter along with equal concentrations of either pcDNA3 control vector (PGL2 vector commercially available from Promega, Madison, Wis.) or the ARTS-pcDNA3 construct, described above.
(§12) The cells were then treated with 10 ng/ml TGF-β for 24 hours.
(§13) After 24 hours, a cell lysate was prepared essentially as described in Part C, above.
(§14) Luciferase activity was determined in the cell lysate using an assay kit (BD Pharmingen, San Diego, Calif.), and a MLX Microtiter plate luminometer (Dynex Technologies, Chantilly, Va.). […]
(§15) Experiments were repeated three times with similar results. The results are expressed as the mean (±SEM) of duplicate luciferase assay, corrected for transfection efficiency.

The next assay deals with caspase 3 in A549 cells. Description: Caspase 3 fluorescent activity assay, A549 cells. The assay is classed as cell-based, human. The conditions noted are these: overexpression of ARTS, following TGF-β treatment. The method, then: as §1
In assay [5] the test system is 3TP-Lux promoter construct in FaO rat hepatoma cells. Put plainly: p3TP-Lux reporter luciferase assay with ARTS cotransfection, FaO cells. Type of assay: cell-based. The conditions noted are these: 10 ng/ml TGF-β 24 hours. How it is done:
as §9, §10, §11, §12, §13, §14, §15

The subject of assay [6] is COS cells. Description: TUNEL assay of transfected COS cells. Type of assay: cell-based, monkey. Conditions: transfected COS cells, 10 ng/ml TGF-β for 24 hours. How it is done: COS cells were cultured as previously described (Section E, above). […] When these cells are transfected with ARTS and treatment with TGF-β they are induced to cell death.
COS cells were then transfected with control vector or wildtype ARTS, essentially as described above, and treated with 10 ng/ml TGF-β for 24 hours.
The apoptotic response of COS cells to TGF-β was assessed by a TUNEL assay ([…], now Roche, Indianapolis, Ind.) following the manufacturer's instructions.
COS cells were cultured and transfected, as described above, with equal concentrations of either pcDNA3 control vector, ARTS or M-ARTS-pcDNA3 using the Lipofectamine transfection reagent (Gibco BRL Life Technologies, Gaithersburg, Md.). The cells were treated with 1 o ng/ml TGF-β for 24 hours.
Apoptosis was examined in a TUNEL assay (Boehringer-Mannheim), according to the manufacturer's instructions.

For assay [7], the system named is NRP-154 cells. Description: Immunofluorescence localization / nuclear translocation of ARTS constructs in NRP-154 cells. The assay is classed as cell-based, rat. Conditions: following TGF-β treatment. How it is done:
(§16) NRP-154 and COS cells were cultured and transfected as described above, and transfected with an ARTS-AU5 tagged construct, essentially as described in Part D, above. The cells were then treated with 10 ng/ml TGF-β.
(§17) An immunofluorescence assay was performed essentially as described in Part G2, above using anti-AU5 antibodies (commercially available Babco, Richmond, Calif.). Anti-AU5 FITC-conjugated secondary antibodies (Pierce) were used to detect transfected ARTS.

The test system of assay [8] is COS cells. Description: Immunofluorescence localization / nuclear translocation of ARTS constructs in COS cells. The assay is classed as cell-based, monkey. Conditions: in response to treatment with TGF-β. How it is done:
as §16, §17

For Ac-DEVD-CHO, the “TGF-β induced caspase activity” value in the assay on caspase 3 is on record as “inbitited the TGF-β induced caspase activity”.

B1: ARTS: Apoptosis Related protein in the TGF-β Signaling pathway; 274 amino acid human septin, SEQ. ID. NO: 2, expressed by transfection (protein, listed as Homo sapiens)
chain: MIKRFLEDTTDDGELSKFVKDFSGNASCHPPEAKTWASRPQVPEPRPQAPDLYDDDLEFRPPSRPQSSDNQQYFCAPAPLSPSARPRSPWGKLDPYDSSEDDKEYVGFATLPNQVHRKSVKKGFDFTLMVAGESGLGKSTLVNSLFLTDLYRDRKLLGAEERIMQTVEITKHAVDIEEKGVRLRLTIVDTPGFGDAVNNTECWKPVAEYIDQQFEQYFRDESGLNRKNIQDNRVHCCLYFISPFGHGYGPSLRLLAPPGAVKGTGQEHQGQGCH
notes: Apoptosis Related protein in the TGF-β Signaling pathway; ID; NO: 2, expressed by transfection
Regarding B1, the “effect on TGF-β induced apoptosis” value in the assay on NRP-154 cells [1] is on record as “lack of effect”. In the assay with caspase 3 in COS cells, the “activation of caspase 3” value is on record as “marked increase in the activation of caspase 3”. Besides, the “percent transfected apoptotic cells” value in the assay on COS cells [2] (COS cells, within 1 hour of TGF-β treatment) was found to be 18%. Besides, the “induction of apoptosis by overexpression alone” value in the assay with COS cells [2] (COS cells, without TGF-β) is “does not induce apoptosis”. For the same molecule, the “induction of apoptosis in transfected cells” value in the assay on COS cells [2] (cells treated with TGF-β) was “increased basal level and TGF-β-induced level of apoptosis”. Further, the “sensitivity to TGF-β induced apoptosis” value in the assay with M-NRP1 cells is recorded as “restored, in part, the sensitivity”. Besides, the figures for the “caspase 3 activity” value (in [3]; in the assay on caspase 3 in A549 cells) were “no further effect” and “marked increase in caspase 3 activity”, respectively. Besides, the “basal and TGF-β-induced luciferase activity (3TP-Lux)” value in assay [4] and in assay [5] was “increased” each time. The “TUNEL staining / competence to undergo apoptosis” value with COS cells [6] was “strong TUNEL staining”.

B2: ARTS-AU5: AU5 tagged construct containing the entire ARTS coding sequence in pCEF-AU5 vector (protein)
chain: B1 chain
modifications: left off: small tags and cut ends
As for B2, the “translocation to the nucleus” value in the assay on NRP-154 cells [7] is given as “translocates to from the mitochondria to the nucleus”. Further, the “translocation to / localization in the nucleus” value in the assay with COS cells [8] was “translocates to from the mitochondria to the nucleus”.
